This note sets out measurements from US20170192000A1 (Hoffmann-La Roche, published 2017).

The experiment concerns the target T1, Human li p10 (human).
T1 construct: also called Ii p10; li p10 peptide
T1 chain: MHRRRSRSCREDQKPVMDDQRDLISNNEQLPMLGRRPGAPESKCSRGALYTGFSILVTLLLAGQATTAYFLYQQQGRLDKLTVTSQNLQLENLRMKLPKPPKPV
Put plainly: flow cytometry on fixed and permeabilised human PBMC treated with Cathepsin S inhibitor 1. The procedure: FIG. 1: Detection of Ii p10 expression on B cells and T cells using a neoepitope antibody. PBMCs isolated from blood donation of a healthy donor (R213) were incubated for 20 h with increasing concentrations of Cathepsin S inhibitor 1 or vehicle. Ii p10 detection on B cells (CD20+) and T cells (CD3+) was determined by flow cytometry using a different neoepitope antibody 7B8 (black).

B1: anti li p10 antibody 7B8 (antibody, V domains shown)
VH: QSLEESGGRLVTPGTPLTLTCTVSGIDLSTYAMTWVRQAPGKGLEWIGIIYNNGVVVYASWAKGRFTISKTSTTVDLKMTSPTTEDTATYFCCRGYYDGSVNVWGPGTLVTVSL
VL: QVLTQTASSVSAVVGGTVTISCQSSQSVYNDNVLSWFQQKPGQPPKLLIYLASTLASGVPSRFSGSGSGTQFTLTISDLECDDAAAYYCLGGYTGDMYAFGGGTEVVV
notes: Used unlabeled at 10 ug/mL and detected with PE-conjugated goat anti-rabbit IgG; also called anti-p10 antibody
Regarding B1, the binding result is on record as “binds”.
